Source: US20230089604A1, “ANTI-ADSORPTION SOLUTION” (Universiteit Gent, priority 2019, published 2023)

Key:
Format in all cases: physicochemical
[1] = Proof of concept (pivotal experiment): D-optimal design for the injection solvent and vial coating that minimize glass adsorption, UHPLC-MS/MS peak area
Description: 36 model peptides were selected for evaluation of the anti-adsorption diluent general functionality. The most suitable solvent composition and need of vial coating with the anti-adsorption diluent was evaluated via a D-optimal design model generated by Modde software (Umetrics, Umea, Sweden).
The peptides were analyzed at the concentration specified in Table 5. For model optimization, the analysis wizard was used. […] In the next step, the non-significant model terms (i.e. those not contributing to a higher R^2 and/or Q^2) were removed via the coefficient plot. Outliers in the residuals normal probability plot and the observed versus predicted plot were removed. The optimum was calculated using the optimizer tool of the Modde software.
Using the same UHPLC-MS/MS apparatus as previously described in the proof of principle, the column compartment was kept at 60° C. and the sample compartment at 10° C. respectively. […] The peptides analyzed using the HILIC amide or C18 column system are mentioned in Table 7. […]
To further investigate the wide applicability of this novel anti-adsorption diluent, 36 peptides were selected. […] The necessity of prior coating the vial with anti-adsorption diluent was also evaluated in the same D-optimal design model. Prior to this experiment, the LC-MS suitability of the anti-adsorption diluent was evaluated by injecting the anti-adsorption diluent as such. […]

[2] = Anti-adsorption diluent applicability for polypropylene inserts; conditions: 100 ng/mL, polypropylene insert, anti-adsorption diluent Source 1
Description: Anti-adsorption diluent applicability for polypropylene inserts. The functionality of the anti-adsorption diluent Source 1 in polypropylene inserts was evaluated via the peptide […] (100 ng/mL). The peptide was analyzed in (I) a glass insert with 50/50 V/V water/acetonitrile+0.1% m/V formic acid, (II) a polypropylene insert with 50/50 V/V water/acetonitrile+0.1% m/V formic acid, (III) a glass insert with anti-adsorption diluent Source 1, and (IV) a polypropylene insert with anti-adsorption diluent. The UHPLC-MS/MS method provided in the proof of principle experiment was applied. The experiment was performed in triplicate.
Previous experiments were all conducted using glass inserts. Plastic vials and inserts are also widely used for the chromatography of peptides. Therefore, the applicability of the anti-adsorption diluent was evaluated using a polypropylene insert. The peptide […] (100 ng/mL) was either analyzed using a glass or polypropylene insert with or without anti-adsorption diluent (see FIG. 11).

[3] = Functional evaluation of anti-adsorption diluent from 3 sources (consecutive transfer to 5 glass inserts); conditions: 100 ng/mL in 50/50 V/V water/acetonitrile + 0.1% m/V formic acid
Description: Functional evaluation of anti-adsorption diluent from 3 sources. The functionality of anti-adsorption diluent Source 1, Source 2, and Source 3 was evaluated via the peptide […] (SEQ ID No. 1). The peptide was diluted in either solvent (50/50 V/V water/acetonitrile supplemented with 0.1% m/V formic acid) or in 1 of the 3 anti-adsorption diluent sources to a peptide concentration of 100 ng/mL. The solution was either transferred to an insert and immediately analyzed via UHPLC-MS/MS or repeatedly transferred to inserts (5 inserts in total), with analysis of the 5th insert. UHPLC-MS/MS was carried out as previously discussed in the proof of principle (pilot experiment)-section. To prevent peptide degradation, each sample was prepared immediately prior to injection. Per condition 3 replicates were analyzed.
The pilot and pivotal experiments were carried out using anti-adsorption diluent originating from Source 1. Since Bovine Serum Albumin can differ amongst suppliers, anti-adsorption diluent was prepared originating from 3 sources, referred to as Source 1, Source 2, and Source 3. […] (100 ng/mL analytical concentration) was evaluated and (II) the peptide solution was repeatedly transferred from one insert to another (5 inserts in total) with subsequent analysis of the 5th insert. […]

[4] = Peptide stability by HPLC-PDA (0 h vs 3 h); conditions: 1 mg/mL, 3 h at 20° C.
Description: The 3 h peptide stability was evaluated by high performance liquid chromatography equipped with a photo diode array detector.
The peptide stability of peptide […] (SEQ ID No: 1) was evaluated with HPLC-PDA and the Vydac Everest C18 column. The analytical solution (1 mg/mL) in acetonitrile/water (V/V)+0.1% m/V formic acid (i.e. matching solvent composition as the anti-adsorption diluent without hydrolysate components) was chromatographed with the gradient provided in Table 3. Analysis was performed with a Waters Alliance 2695 HPLC with a Waters 2695 Separations Module, combined with a Flow Through Needle, and a Waters 2996 Photodiode Array Detector with Empower 2 software for data acquisition (Waters, Milford, Mass., USA).
The peptide was injected at 0 h and 3 h.

[5] = Proof of principle (pilot experiment): peptide recovery over time in uncoated glass vial inserts, UHPLC-MS/MS; conditions: anti-adsorption diluent Source 1, 100 ng/mL, glass vial insert
Description: The peptide with amino acid sequence […] (SEQ ID No: 1) was stored in uncoated (U)HPLC vial inserts at a concentration of 100 ng/mL in 2 different solvents for a total of approximately 2 h. […] The vials were stored in the UHPLC autosampler compartment during analysis and at 0 min a vial containing solvent 1 and 100 ng/mL peptide was injected onto the UHPLC-MS/MS to serve as reference. The peptide recovery was calculated by dividing the peptide peak area of each time point and condition by the peptide peak area of sample 0 min in solvent 1. Appropriate blank samples were first subjected to the UHPLC-MS/MS for evaluation of interfering substances. This experiment was performed in uniplicate.
UHPLC-MS/MS of peptide […] was conducted with an Acquity H-class quaternary solvent manager, connected to an Acquity Xevo TQ-S triple quadrupole mass spectrometer (Waters, Milford, Mass., USA). The column compartment was kept at 45° C. and the sample compartment at 20° C. Mobile phase A consisted of water/acetonitrile/dimethylsulfoxide 90/5/5 V/V/V supplemented with 0.1% m/V formic acid and mobile phase B consisted of water/acetonitrile/dimethylsulfoxide 5/90/5 V/V/V supplemented with 0.1% m/V formic acid. Chromatography was performed with an Acquity UHPLC BEH300 C18 column (2.1×100 mm, 1.7 μm particle size) (Waters) protected with a suitable guard column. […]

Sequence	Peptide peak area ([1]; 1 nM with anti-adsorption diluent Source 1, glass vial)	Peptide peak area ([1]; 1 nM without anti-adsorption diluent, glass vial)	Increase of peptide peak area with anti-adsorption diluent compared to without [2]	Peptide peak area after transfer to 5 inserts, as % of peak area without transfer [3]	Additional peaks after 3 h incubation (0.5% reporting threshold) [4]	Glass adsorption of the peptide when using the anti-adsorption diluent [5]
EQLSFTSIGILQLLTIGTRSCWFFYCRY (Q49) [Peptide Q49]	16772.4	1363.8				
MFPTIPLSRLFDNAMLRAH (Pilot peptide) [pilot experiment peptide]			approximately 30%	approximately 10%	No additional peaks	completely abolished
